{"source": "paper PMC4220974", "about": "“Effect of the L499M mutation of the ascomycetous Botrytis aclada laccase on redox potential and catalytic properties” (Acta Crystallographica Section D: Biological Crystallography, 2014)", "assay_in_all_cases": "purified protein", "format_in_all_cases": "biochemical, Botrytis aclada", "key": {"[1]": {"system": "CCn1c(=NN=c2sc3cc(S(=O)(=O)O)ccc3n2CC)sc2cc(S(=O)(=O)O)ccc21", "conditions": "pH 4.0, 100 mM citrate-phosphate, 30 °C, air-saturated, µ and ± signs lost in the table text (header reads M), apparent Km, also measured at pH 3, 5, 6"}, "COc1cccc(OC)c1O": {"system": "COc1cccc(OC)c1O", "conditions": "pH 4.0, 100 mM citrate-phosphate, 30 °C, air-saturated, µ and ± signs lost in the table text (header reads M), apparent Km, also measured at pH 3, 5, 6"}, "purified protein [2]": {"substrate": "CCn1c(=NN=c2sc3cc(S(=O)(=O)O)ccc3n2CC)sc2cc(S(=O)(=O)O)ccc21", "conditions": "pH 4.0, 100 mM citrate-phosphate, 30 °C, air-saturated, µ and ± signs lost in the table text (header reads M), apparent Km, also measured at pH 3, 5, 6", "remark": "listed apart in the source"}, "purified protein [3]": {"substrate": "COc1cccc(OC)c1O", "conditions": "pH 4.0, 100 mM citrate-phosphate, 30 °C, air-saturated, apparent Km, also measured at pH 3, 5, 6"}}, "data": [{"molecule": "BaL (Botrytis aclada laccase) (Botrytis aclada; L536M)", "values": [{"measurement": "Km", "setting": "[1]", "result": "19.3 ± 1.0", "unit": "µM"}, {"measurement": "Km", "setting": "COc1cccc(OC)c1O", "result": "80.8 ± 2.7", "unit": "µM"}]}, {"molecule": "BaL (Botrytis aclada laccase) (Botrytis aclada) (protein, full-length cDNA expressed in secreted form in Pichia pastoris X33; 543 residues; kinetics on glycosylated enzyme) SCANSATSRSCWGEYSIDTNWYDVTPTGVTREYWLSVENSTITPDGYTRSAMTFNGTVPGPAIIADWGDNLIIHVTNNLEHNGTSIHWHGIRQLGSLEYDGVPGVTQCPIAPGDTLTYKFQVTQYGTTWYHSHFSLQYGDGLFGPLIINGPATADYDEDVGVIFLQDWAHESVFEIWDTARLGAPPALENTLMNGTNTFDCSASTDPNCVGGGKKFELTFVEGTKYRLRLINVGIDSHFEFAIDNHTLTVIANDLVPIVPYTTDTLLIGIGQRYDVIVEANAAADNYWIRGNWGTTCSTNNEAANATGILRYDSSSIANPTSVGTTPRGTCEDEPVASLVPHLALDVGGYSLVDEQVSSAFTNYFTWTINSSSLLLDWSSPTTLKIFNNETIFPTEYNVVALEQTNANEEWVVYVIEDLTGFGIWHPIHLHGHDFFIVAQETDVFNSDESPAKFNLVNPPRRDVAALPGNGYLAIAFKLDNPGSWLLHCHIAWHASEGLAMQFVESQSSIAVKMTDTAIFEDTCANWNAYTPTQLFAEDDSGI", "values": [{"measurement": "Km", "setting": "purified protein [2]", "result": "14.0 ± 1.0", "unit": "µM"}, {"measurement": "Km", "setting": "purified protein [3]", "result": "8.3 ± 0.7", "unit": "µM"}]}]}
